Data on one substance can be found in PMC2752815.

For this test, the target named is mouse βB1-crystallin (mouse) (UniProt Q9WVJ5). As to the kind of experiment: AUC.

In general, Kd refers to the free concentration of one partner at which half of the binding sites on the other are occupied at equilibrium, for simple one-to-one binding. Higher therefore signals weaker binding. As a reminder, the stoichiometry N is a count of units in the complex or per binding partner. In turn, “mouse βB1-crystallin (from UniProt Q9WVJ5 1-250) (natural protein)” gave a dissociation constant (Kd) of 1550 nM and a stoichiometry N of 2.
